Test results: US20200121803A1 (published 2020)

T1: Human CD98, endogenous on HCC38, Molt-4 and Jurkat human cancer cells (human)
T1 chain: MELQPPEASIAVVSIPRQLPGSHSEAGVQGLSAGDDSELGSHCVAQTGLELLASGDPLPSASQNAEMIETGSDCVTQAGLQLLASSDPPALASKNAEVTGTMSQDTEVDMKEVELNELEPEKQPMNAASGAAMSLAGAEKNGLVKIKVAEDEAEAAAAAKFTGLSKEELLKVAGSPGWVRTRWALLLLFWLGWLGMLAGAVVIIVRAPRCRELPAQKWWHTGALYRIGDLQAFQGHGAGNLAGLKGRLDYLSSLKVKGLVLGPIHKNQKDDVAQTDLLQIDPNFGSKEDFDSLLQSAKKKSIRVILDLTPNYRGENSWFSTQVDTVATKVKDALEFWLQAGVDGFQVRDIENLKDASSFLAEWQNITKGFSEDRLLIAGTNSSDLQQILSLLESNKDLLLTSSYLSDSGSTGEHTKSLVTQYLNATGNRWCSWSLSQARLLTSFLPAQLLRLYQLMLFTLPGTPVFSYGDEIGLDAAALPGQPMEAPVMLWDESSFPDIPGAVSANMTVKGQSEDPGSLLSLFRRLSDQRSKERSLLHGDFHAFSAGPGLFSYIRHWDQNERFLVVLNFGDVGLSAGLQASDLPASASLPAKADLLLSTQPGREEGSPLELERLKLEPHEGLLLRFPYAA

T2: human CD98, endogenously expressed on Molt-4 human acute lymphoblastic leukemia cells (human)
T2 chain: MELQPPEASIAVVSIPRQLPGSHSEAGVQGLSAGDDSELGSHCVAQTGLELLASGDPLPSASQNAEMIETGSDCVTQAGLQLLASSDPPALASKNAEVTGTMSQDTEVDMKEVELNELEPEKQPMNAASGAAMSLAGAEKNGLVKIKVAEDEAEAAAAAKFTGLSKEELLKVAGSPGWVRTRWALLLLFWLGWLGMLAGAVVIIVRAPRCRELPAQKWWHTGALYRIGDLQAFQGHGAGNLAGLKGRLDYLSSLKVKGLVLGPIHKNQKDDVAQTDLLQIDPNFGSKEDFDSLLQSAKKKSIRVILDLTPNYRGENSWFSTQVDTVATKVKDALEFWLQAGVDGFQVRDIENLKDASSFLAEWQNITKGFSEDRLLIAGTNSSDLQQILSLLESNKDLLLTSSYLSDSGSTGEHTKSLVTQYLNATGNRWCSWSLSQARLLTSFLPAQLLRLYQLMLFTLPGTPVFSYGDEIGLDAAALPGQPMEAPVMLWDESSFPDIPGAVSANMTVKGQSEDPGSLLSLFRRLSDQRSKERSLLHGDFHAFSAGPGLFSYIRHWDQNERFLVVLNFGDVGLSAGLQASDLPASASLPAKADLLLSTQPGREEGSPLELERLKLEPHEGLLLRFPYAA

B1: Ab10-CZ (Ab10 conjugated to Bcl-xL inhibitor synthon CZ) (antibody, V domains shown)
VH: EVQLVESGGGLVQPGRSLKLSCAASGFTFSDYAMAWVRQAPKKSLEWVATIIYDGRGTYCRDSVKGRFTISRDNAKSTLYLQMDSLRSEDTATYYCARQGDGTYHYWGYFDYWGQGVMVTVSS
VL: DIVMTQSPSSLAVSAGETVTINCKSSQSLLSSGNQKNYLAWYQQKPGQSPKLLIYWASTRQSGVPDRFIGSGSGTDFTLTISSVQAEDLAIYYCQQYYDTPYTFGAGTKVDLK
B2: Ab15-CZ (Ab15 conjugated to Bcl-xL inhibitor synthon CZ) (antibody, V domains shown)
VH: EVQLVESGGGLVQPGRSLKLSCAASGFTFSDYTMAWVRQAPKKGLEWVATIIYDGRGTYYRDSVKGRFTISRDNAKSTLYLQMDSLRSEDTATYYCARQSDGTYYYWGYFDYWGQGVMVTVSS
VL: DIVMTQSPSSLAVSAGETVTINCKSSQSLLFSGNQKNYLAWYQQKPGQSPKLLIYWASTRQSGVPDRFIGSGSGTDFTLTIRSVQAEDLAIYYCQQYYDSPYTFGAGTKLELK
B3: Ab11-CZ (Ab11 conjugated to Bcl-xL inhibitor synthon CZ) (antibody, V domains shown)
VH: EVQLVESGGGLVQPGRSLKLSCAASGFTFSDYAMAWVRQAPKKGLEWVAGIIYDGRGTYYRDSVKGRFTISRDNAKSTLYLQMDSLRSEDTATYYCARQGDGTYYYWGYFDYWGQGVMVTVSS
VL: DIVMTQSPSSLAVSAGETVTINCRSSQSLLSSGNQKNYLAWYQQKPGQSPKLLIYWASTRQSGVPDRFIGSGSGTDFTLTISSVQAEDLAIYYCQQYYDTPYTFGAGTKLELK
B4: Ab12-CZ (Ab12 conjugated to Bcl-xL inhibitor synthon CZ) (antibody, V domains shown)
VH: EVQLVESGGGLVQPGRSLKLSCAASGFTFSDYAMAWVRQAPKKGLEWVASIIYDGRGTYYRDSVKGRFTISRDNAKSTLYLQMDSLRSEDTATYYCARQGDGTYYYWGSFDYWGQGVMVTVSS
VL: DIVMTQSPSSLAVSAGETVTINCKSSQSLLSSGNQKNYLAWYQQKPGQSPKLLIYWASTRQSGVPDRFIGSGSGTDFTLTISSVQAEDLAIYHCQQYYDTPYTFGAGTKLELK
B5: Ab14-CZ (Ab14 conjugated to Bcl-xL inhibitor synthon CZ) (antibody, V domains shown)
VH: EVKLQQSGDELVRPGASVKISCKASGYTFTSYSMHWVKERPGQGLEWIGAIFPIIGTTEYNQKFKGKATLTADKSSNTANMELSRLTSEDSAVYYCARVYLSYFDYWGQGVMVTVSS
VL: DIQMTQSPSFLSASVGDRVTINCKASQNINKYLDWYQRKHGEAPKLLIYNTNNLQTGIPSRFSGSGSGTDYTLTISSLQPEDVATYFCLQHSSRYTFGAGTKLELK
B6: Ab9-CZ (Ab9 conjugated to Bcl-xL inhibitor synthon CZ) (antibody, V domains shown)
VH: QVQLKESGPGLVQPSQTLSLTCAVSGFSLSNYGVIWVRQPPGKGLEWMAVIWTNGNTNYNSTLKSRLSISRDTSKSQVYLKMNSLQTEDTATYYCARHYYDGTYYYGYFDYWGQGVMVTVSS
VL: DIVMTQTPSSQAVSAGEKVTMSCKSSQSLLYTENKKNYLAWYQQKPGQSPKLLIYWASTRESGVPDRFMGSGSGTDFTLTISSVQAEDLAVYYCQQYYYFPYMFGAGTKLELK
B7: Ab13-CZ (Ab13 conjugated to Bcl-xL inhibitor synthon CZ) (antibody, V domains shown)
VH: QVQLKESGPGLVQPSQTLSLTCTVSGFSLSSYGVIWVRQPPGKGLEWMGIIWANGNTNYNSALKSRLSISRDTSKSQVYLKMNSLQTEDTATYYCARHYYDGTHYYGYFDYWGQGVMVTVSS
VL: DTVMTQTPSSQAVSAGEKVTMSCKSSQSLLYSENKKKYLAWYQQKPGQSPKLLIYWASTRESGVPDRFIGSGSGTDFTLTISSVQAEDLAVYYCQQYYNFPYTFGAGTKLELK
B8: Ab2-CZ (Ab2 conjugated to Bcl-xL inhibitor synthon CZ) (antibody, V domains shown)
VH: EVKLVESGGGLVQPGGSLRLSCATSGFNFTDYYMSWVRQPPGKALEWLGFIRNKANGYTTEYSASVKGRFTISRDDSQSILYLQMNTLRAEDSATYYCARASYGNSEGWFAYWGQGTLVTVSA
VL: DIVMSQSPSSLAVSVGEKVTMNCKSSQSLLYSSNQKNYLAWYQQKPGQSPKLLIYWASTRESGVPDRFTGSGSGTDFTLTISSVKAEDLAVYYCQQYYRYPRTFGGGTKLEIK
B9: Ab3-CZ (Ab3 conjugated to Bcl-xL inhibitor synthon CZ) (antibody, V domains shown)
VH: EVKLVESGGGLVQPGNSLRLSCATSGFTFIDYYMSWVRQSPGKALEWLGFIRNKANGYTTEYSASVKGRFTISRDNSQSILYLQMDTLRAEDSATYYCTRDRPAWFVYWGQGTLVTVSA
VL: DIVMSQSPSSLAVSVGEKVTMSCKSSQSLLYSSNQKNYLAWYQQKPGQSPKLLIYWASTRESGVPDRFTGSGSGTDFTLTFSSVRAEDLAVYYCQQYYSYPYTFGGGTKLEIK
B10: CD98 (CL-huAb110)-ZZ (antibody, human IgG1, kappa, L234A L235A, V domains shown)
VH: EVQLVQSGAEVKKPGASVKVSCKASGFTFSDYTMAWVRQAPGQGLEWVATIIYDARGTYYRDAVKGRFTITRDNSTSTLYLELSSLRSEDTAVYYCARQSDDTYYYWGYFDYWGQGTMVTVSS
VL: DIVMTQTPLSLPVTPGEPASINCKSSQSLLFSGNQKNYLAWYLQKPGQSPQLLIYWASTRQSGVPDRFSGSGSGTDFTLKISRVEAEDVGIYYCQQYYSSPYTFGQGTKLEIKR
modifications: synthon ZZ on reduced cysteine (see heavy chain); Bcl-xL inhibitor synthon ZZ on cysteines freed by TCEP reduction (Method G); DAR 1.0 by MS for the whole ADC
B11: CD98 (CL-huAb102)-XW (antibody, human IgG1, kappa, L234A L235A, V domains shown)
VH: EVQLVESGGGLVQPGGSLRLSCATSGFTFIDYYMSWVRQAPGKGLEWLGFIRNKANRYTTEYSASVKGRFTISRDNSKSILYLQMNSLKTEDTAVYYCTRDRPAWFVYWGQGTLVTVSS
VL: DIVMTQTPLSLPVTPGEPASISCKSSQSLLYSSNQKNYLAWYLQKPGQSPQLLIYWASTRESGVPDRFSGSGSGTDFTLKISRVEAEDVGVYYCQQYYSYPYTFGGGTKVEIKR
modifications: synthon XW on reduced cysteine (see heavy chain); Bcl-xL inhibitor synthon XW on cysteines freed by TCEP reduction (Method G); DAR 2.8 by MS for the whole ADC
B12: CD98 (CL-huAb108)-XW (antibody, human IgG1, kappa, L234A L235A, V domains shown)
VH: EVQLVQSGAEVKKPGASVKVSCKASGFTFSDYTMAWVRQAPGQGLEWVATIIYSGRGTYYRDAVKGRFTITRDNSTSTLYLELSSLRSEDTAVYYCARQSDDTYYYWGYFDYWGQGTMVTVSS
VL: DIVMTQTPLSLPVTPGEPASINCKSSQSLLFSGNQKNYLAWYLQKPGQSPQLLIYWASTRQSGVPDRFSGSGSGTDFTLKISRVEAEDVGIYYCQQYYDVPYTFGQGTKLEIKR
modifications: synthon XW on reduced cysteine (see heavy chain); Bcl-xL inhibitor synthon XW on cysteines freed by TCEP reduction (Method G); DAR 3.5 by MS for the whole ADC
B13: CD98 (CL-huAb104)-XW (antibody, human IgG1, kappa, L234A L235A, V domains shown)
VH: EVQLVESGGGLVQPGGSLRLSCATSGFTFIDYYMSWVRQAPGKGLEWLGFIRNKAYGYTTEYSASVKGRFTISRDNSKSILYLQMNSLKTEDTAVYYCTRDRPAWFVYWGQGTLVTVSS
VL: DIVMTQTPLSLPVTPGEPASISCKSSQSLLYSSNQKNYLAWYLQKPGQSPQLLIYWASTRESGVPDRFSGSGSGTDFTLKISRVEAEDVGVYYCQQYYSYPYTFGGGTKVEIKR
modifications: synthon XW on reduced cysteine (see heavy chain); Bcl-xL inhibitor synthon XW on cysteines freed by TCEP reduction (Method G); DAR 3.1 by MS for the whole ADC

Target: T1, Human CD98, endogenous on HCC38, Molt-4 …
Experiment: cell-based or functional assay

Binder	ADC potency, IC50 (nM), HCC38 growth inhibition	ADC potency, IC50 (nM), Jurkat growth inhibition	ADC potency, IC50 (nM), Molt-4 growth inhibition
B1	1.16 nM	0.148 nM	0.047 nM
B2	1.06 nM	0.076 nM	0.071 nM
B3	1.14 nM	0.311 nM	0.279 nM
B4	0.685 nM	0.094 nM	0.087 nM
B5	0.798 nM	0.063 nM	0.025 nM
B6	1.09 nM	0.092 nM	0.03 nM
B7	0.787 nM	0.149 nM	0.38 nM
B8	0.791 nM	0.065 nM	0.05 nM
B9	0.561 nM	0.071 nM	0.031 nM

Target: T2, human CD98, endogenously expressed on …
Experiment: cell-based or functional assay

Binder	% Cell Viability at 50 nM (Molt-4)	Molt4 IC50 (nM), 50% inhibition of cell proliferation, 72 h, ATPlite
B10	4.3%	0.252 nM
B11	32%	0.074 nM
B12	20.9%	0.281 nM
B13	31.1%	0.102 nM
